Measurements taken from PMC5498567.

Test system: T1, BsmT (Stenotrophomonas maltophilia ATCC 13637 (CGMCC 1.1788 in supplement)), ORF:ed0b4815
T1 sequence: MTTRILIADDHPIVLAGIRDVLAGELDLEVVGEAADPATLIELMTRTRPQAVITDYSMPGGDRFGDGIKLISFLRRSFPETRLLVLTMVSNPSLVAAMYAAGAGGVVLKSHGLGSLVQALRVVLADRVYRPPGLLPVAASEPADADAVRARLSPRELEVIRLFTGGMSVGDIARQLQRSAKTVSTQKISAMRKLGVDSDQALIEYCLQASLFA
Assay: EMSA
Settings: EMSA: 1 fmol 32P-labelled dsDNA with BsmT in reaction buffer at 28 °C; buffer composition, salt and pH not given (protein storage buffer 50 mM Tris-HCl, 0.5 mM …)

GTGCCCGGCCAATGTCGGTACAGGAAACCCCCGCTTCGGCGGGGGTTCCTTTTTTTGCCACCTGAACGGTGCCCGCGTGCAGGCTCCGGGCCGGTCGGCCAGCCGGGGATTTTAGGAAACAGCTGATTCCGCGCCGTCCGCGCCGCTTCCTAGCATCGTTGC (double strand)
binding: binds
